The values that follow come from publication doi:10.1101/2025.06.23.656378.

This data set concerns poly-L-lysine (PLL, 30-70 kDa, Sigma P2636). Kind of data set: EMSA. To be noted: 10 mM Tris pH 7.5, 100 mM KCl, 5% glycerol, 30 min at room temperature.

Consider “TTAGAATTAGAATTAGAATTAGAA [dTERRA_M2 [TTAGAA]4]”, for which the Kd stood at 34 nM.

With “UUAGAAUUAGAAUUAGAAUUAGAA [rTERRA_M2 [UUAGAA]4]”, the Kd came to 7.4 nM.

As usually defined, the Kd is the constant that tells how readily two partners part at equilibrium.
